Numbering of substitutions follows the chain as printed. Marks after values point to notes of the source that are not given here.
Columns and labels:
[1] = biological target: T1, HCMV US28 (strain DB) on CHO-US28-A1 cells (Human cytomegalovirus, UniProt P69332, D170N/D19A); experiment: FACS surface binding to CHO-US28-A1 cells; conditions: CHO-US28-A1 cells compared with US28 negative control CHO cells
T1 construct: expressed in transfected cells; host or cells: CHO-K1 (vector pCDH-EF1a-MCS)
Method: Plasmid construction was performed to create a US28-overexpressing cell line. The US28 sequence, identical to HCMV DB strain (Acc. Number: KT959235; SEQ ID No. 5 of this application), fused to a 6His tag at its C terminal part, was inserted into the pCDH-EF1a-MCS vector (Creative Biolabs, Shirley, NY 11967, USA). The plasmid construct was transfected to CHO-K1 cell line. The cells were collected 48 hours after transfection. The cell line was named as CHO-US28-A1-6His and its protein sequence (SEQ ID NO: 47) is the following:
(§1) Flowcytometry was used to analyze cell surface binding by the US28 antibodies. Upon cell harvest, adherent non-infected and US28 overexpressing or HCMV infected cells were washed three times with cell staining buffer (phosphate-buffered saline (PBS (Amresco, Cleveland, 44139, USA) added 0.5% BSA and 0.05% Sodium Azide (NaN3)). The cells were trypisinized and then resuspended in DMEM with 10% FBS to inhibit the action of trypsin. The cells were then pelleted at 400×g for 10 minutes and washed three times in cell staining buffer. Cell viability and cell concentration were measured by tryphan blue viability assay and a cell counter (Countess, Invitrogen, Carlsbad, CA 92008, USA). The cell suspension was adjusted to 1×10^6 cells/mL with ice-cold cell staining buffer. The cells were blocked in 1 ml 10% FBS or 1% BSA in PBS per 1×10^6 cells, vortexed briefly, and incubated for 10-30 minutes to eliminate non-specific staining. The cells were then stained with the respective antibodies and appropriate negative controls.
The primary antibodies used were I) 13-5G6-1D3 (50 μg/ml) as a positive control; II) Monovalent and Bivalent VUN100 ScFvs 1:1 (50 μg/ml); III) test antibodies for the specified subclones (1:5).
The primary antibodies used were I) 13-5G6-1D3 1:50 to 50 μg/ml; and II) Commercial US28 polyclonal antibody (50 μg/ml), III) Monovalent and Bivalent VUN100 ScFvs (50 μg/ml) and for certain experiments, the appropriate isotype controls were included.
(§2) In both cases (ECD1 and ECD3), the antibodies were added to the cells, vortexed and incubated on ice for 15 to 30 minutes up to overnight and washed twice with cell staining buffer to remove any unbound antibodies. In addition, the CMV Immediate Early Antigen (IE) Alexa488 Ab, MAB810X, 1:50 was included to verify HCMV infected cells in one of the experiments. Because it binds to an intracellular, HCMV encoded protein, it was added after permeabilizing the cells in 70% ethanol for 30 min on ice.
(§3) 1:500-1:5000 in cell staining buffer of the appropriate fluorescent-conjugated appropriate secondary antibodies were added and incubated on ice for 15-20 min in the dark. The cells were washed three times to remove any unbound antibodies. The cells were then fixed with 0.5% paraformaldehyde (PFA) for 30 min on ice and resuspended in 200-500 μL cell staining buffer for final flow cytometric analysis using an Accuri C6 flow cytometry system (BD Biosciences, San Jose, CA 95131, USA). Data analyses were performed using FlowJo software v8.8 (Treestar Inc. Ashland, OR 97520, USA).
(§4) Background levels were determined using the respective secondary antibodies (anti-mFc-FITC for the subclones, or anti-myc-PE for the VUN100 molecules) with CHO cells and CHO-US28 cells. Given that US28 is expressed on the cell surface, the cells were non-permeabilised for these experiments.

[2] = biological target: T2, Peptide-2 […] (SEQ ID NO: 7), US28 ECD3 4D variant (Human cytomegalovirus, UniProt P69332); experiment: ELISA, binding to Bio-Peptide-2; design: species or system HCMV; conditions: 4D variant peptide
T2 construct: made in house; host or cells: chemical synthesis
Method: Microtiter plate wells were coated with 100 μl of the solution containing: (i) Bio-Peptide-N; or (ii) Bio-Peptide-1 and Bio-Peptide-2; at a concentration of between 1-10 μg/ml in coating buffer, consisting of Na2CO3, 1.5 g and NaHCO3, 2.93 g in 1 L of distilled water in pH 9.6, and then incubated for 1-2 hours at room temperature. The plate was washed 3 times in wash buffer consisting of PBS containing 0.05% v/v Tween-20 and blotted with paper towels thereafter. 150 μl of blocking solution containing Phosphate buffered saline (PBS) containing 1% w/v BSA, was added to each well and the plate was incubated for 2 hours at 37° C. The wells were washed 4 times in wash buffer and blotted on paper towels after the last wash. 100 μl of antibody dilution was added to each well and the plate was incubated for 1 hour at 37° C. and thereafter washed 3 times in wash buffer. 100 μl enzyme-conjugated secondary antibody (appropriately diluted in wash buffer) was added to each well and the plate was incubated for 1 hour at 37° C. The wells were then again washed 3 times in wash buffer and blotted with paper towels after the last wash. […] The absorbance values were read immediately at the appropriate wavelength and the data analyzed by Cmax Plus, Molecular Devices, San Jose, CA 95134, USA, […]

[3] = test system: control CHO cells (US28 negative); experiment: FACS binding to US28 negative control CHO cells; design: species or system Chinese hamster; conditions: Table 7A; (1:5) (200 μg/ml); secondary antibody background removed
Method: as §1, §2, §3, §4

B1: 13-5G6-1D3 clone: antibody from hybridoma clone US28-13-5G6-1D3 (antibody)
heavy: EVKLVESGGGLVQPGGSLRLACATSGFTFTDYYMSWVRQPPGKALEWLGFIRSKANGYTTEYSASVKGRFTISRDNSQSILYLQMNTLRSEDSATYYCARDERRTAWLAYWGQGTLVTVSAAKTTPPSVYPLAPGSAAQTNSMVTLGCLVKGYFPEPVTVTWNSGSLSSGVHTFPAVLQSDLYTLSSSVTVPSSTWPSETVTCNVAHPASSTKVDKKIVPRDCGCKPCICTVPEVSSVFIFPPKPKDVLTITLTPKVTCVVVDISKDDPEVQFSWFVDDVEVHTAQTQPREEQFNSTFRSVSELPIMHQDWLNGKEFKCRVNSAAFPAPIEKTISKTKGRPKAPQVYTIPPPKEQMAKDKVSLTCMITDFFPEDITVEWQWNGQPAENYKNTQPIMDTDGSYFIYSKLNVQKSNWEAGNTFTCSVLHEGLHNHHTEKSLSHSPGK
light: DVLMTQTPLSLPVSLGDQASISCRSSQSIVHSNGNTYLDWYLQKPGQSPKLLIYKVSNRFSGVPDRFSGSGSGTDFTLKISRVEAEDLGVYYCFQGSHVPTWTFGGGTKLEIKRADAAPTVSIFPPSSEQLTSGGASVVCFLNNFYPKDINVKWKIDGSERQNGVLNSWTDQDSKDSTYSMSSTLTLTKDEYERHNSYTCEATHKTSTSPIVKSFNRNEC
Which “Binding Specificity (ratio of surface binding)” value [1] does the source give for B1 here?
The value was 15.2*.

B2: 13-1C10-1C10: mouse hybridoma subclone antibody against US28 ECD3 Peptide-1 and -2; sequenced (antibody)
heavy: EVKLVESGGVLVKPGGSLKFSCAASGFTFSSHALSWVRQTPEKRLEWVASISSRGRTYYPDSVKGRFTVSRDNARNILYLQVSSLRSEDTAMYYCTRGGTHYSYGNGFDFWGQGTTLTVSSAKTTPPSVYPLAPGSAAQTNSMVTLGCLVKGYFPEPVTVTWNSGSLSSGVHTFPAVLQSDLYTLSSSVTVPSSTWPSETVTCNVAHPASSTKVDKKIVPRDCGCKPCICTVPEVSSVFIFPPKPKDVLTITLTPKVTCVVVDISKDDPEVQFSWFVDDVEVHTAQTQPREEQFNSTFRSVSELPIMHQDWLNGKEFKCRVNSAAFPAPIEKTISKTKGRPKAPQVYTIPPPKEQMAKDKVSLTCMITDFFPEDITVEWQWNGQPAENYKNTQPIMDTDGSYFIYSKLNVQKSNWEAGNTFTCSVLHEGLHNHHTEKSLSHSPGK
light: QIVLTQSPAIMSASPGEKVTMTCSVSSSVSYMHWYQQKSGTSPKRWIYDTSKLASGVPARFSGSGSGTSYSLTISTMEAEDAATYYCQQWSNNPPITFGAGTKLELKRADAAPTVSIFPPSSEQLTSGGASVVCFLNNFYPKDINVKWKIDGSERQNGVLNSWTDQDSKDSTYSMSSTLTLTKDEYERHNSYTCEATHKTSTSPIVKSFNRNEC
What does the source list for B2?
Absorbance values, Peptide 2 [2]: 3.029; Percentage of binding to CHO cells [3]: 0.62%

B3: 14-1H3-1A10: mouse hybridoma subclone antibody against US28 ECD3 Peptide-1 and -2; sequenced (antibody)
heavy: B2 heavy with F29L
light: B2 light
With B3 as the molecule, how does the “Absorbance values, Peptide 2” value [2] read?
Its value is 2.842.

And the “Percentage of binding to CHO cells” value [3]?
Its value is 0.58%.

Reference: US20250296984A1, “THERAPEUTIC AND DIAGNOSTIC AGENTS AND USES THEREOF” (priority 2022, published 2025)
